{
  "source": "patent US10400022B2",
  "about": "“Neuropilin-1 specific binding peptide, fusion protein fused with same, and use thereof” (AJOU UNIVERSITY INDUSTRY-ACADEMIC COOPERATION FOUNDATION, priority 2015, dated 2019)",
  "molecules": {"B1": {"name": "VEGF165A: vascular endothelial cell growth factor-A, NRP1 ligand used as control (protein)", "chain": "APMAEGGGQNHHEVVKFMDVYQRSYCHPIETLVDIFQEYPDEIEYIFKPSCVPLMRCGGCCNDEGLECVPTEESNITMQIMRIKPHQGQHIGEMSFLQHNKCECRPKKDRARQENPCGPCSERRKHLFVQDPQTCKCSCKNTDSRCKARQLELNERTCRCDKPRR"}},
  "key": {"FaDu cells": {"test_system": "FaDu cells", "assay": "Tumor tissue penetration of co-administered doxorubicin (IHC)", "format": "in vivo, Balb/c nude mice", "details": "doxorubicin 10 mg/kg with 2.5 mg/kg PBS, Fc or Fc-TPP11 intravenously, 1 hour", "procedure": "In order to examine tumor tissue penetration of a small-molecule drug co-administered with the Fc-TPP11 constructed in the above-described experiment, immunohistochemistry was performed. Specifically, each of Balb/c nude mice was injected subcutaneously with 5×10^6 FaDu cells, and after about 15 days, when the tumor volume reached about 300 to 400 mm^3, 10 mg/kg of the anticancer drug doxorubicin and 2.5 mg/kg of each of PBS, Fc and Fc-TPP11 were injected intravenously into each mouse. At 1 hour after injection, the mouse heart was perfused with PBS and perfused with 4% para-formaldehyde to fix tissue. Next, the tumor tissue was extracted and subjected to immunohistochemistry. The extracted tumor was sectioned to a thickness of 20 μm by a frozen-section method, and the blood vessels were stained with the primary antibody CD31 (BD Pharmingen) and a FITC (green fluorescence)-labeled secondary antibody recognizing the same.\nAccording to the same method as that used for FIG. 18(A), doxorubicin and each of PBS, Fc and Fc-TPP11 were injected intravenously into mice, and the mouse heart was perfused with PBS, and the tumor tissue was extracted. […] Then, the tissue was thawed at 37° C. and centrifuged, and the fluorescence (Excitation 485 nm/emission 528 nm) of the supernatant was measured to quantify the amount of doxorubicin penetrated."}, "HUVEC cells [1]": {"test_system": "HUVEC cells", "assay": "Wound healing assay (migration of vascular endothelial cells)", "format": "cell-based, human", "details": "VEGF165A 20 ng/ml, 1 μM, 18 hours", "procedure": "In addition to the results obtained in Examples 8(1) and 8(2), in order to examine the inhibitory activity of Fc-TPP11 against VEGF165A-induced migration of vascular endothelial cells, a wound healing assay was performed. In an experimental method, 5×10^5 HUVEC cells were seeded into each well of a 6-well plate, and then incubated in 0.5% serum EBM2 medium containing 1 μg/ml mitomycin c for 1 hour until the cells were saturated (95% or more) in the plate. The dish bottom was linearly rubbed with a yellow tip to make injury lines having a uniform width. Then, the cells were washed with PBS such that the cells were detached from the bottom. After removal of PBS, medium was added slowly to the HUVEC cells. The cells were treated with 0 or 20 ng/ml of VEGF165A, treated with each of Fc and Fc-TPP11 (1 μM), and then incubated under the conditions of 37° C. and 5% CO2. The cells were imaged with a microscope (Primo vert, Carl Zeiss co., Germany) at 0 hour and 18 hours, and the distance between both ends, measured with a computer program (AxioVision LE, Carl Zeiss co., Germany) included in the microscope, was statistically processed."}, "VE-cadherin": {"test_system": "VE-cadherin", "assay": "Western blot of VE-cadherin in HUVEC", "format": "cell-based, human", "details": "10 minutes", "procedure": "Specifically, 5×10^5 HUVEC cells were seeded into each well of a 6-well plate and incubated for 24 hours, […] constant Fc region and the selected peptide that binds specifically to NRP1, for 10 minutes, followed by Western blot analysis. After SDS-PAGE, the gel was transferred to a PVDF membrane, and detection was performed using primary antibodies (SantaCruz) that recognize VE-cadherin and β-actin and using HRP-conjugated secondary antibody (SantaCruz), and analysis was performed using ImageQuant LAS4000 mini (GE Healthcare)."}, "[2]": {"test_system": "human umbilical vein endothelial cells (HUVECs)", "assay": "Transwell assay of penetration of vascular endothelial cells (dextran-FITC)", "format": "cell-based", "details": "1 μM for 30 minutes (VEGF165A about 1.3 nM); dextran-FITC fluorescence in lower chamber", "procedure": "Specifically, 5×10^4 human umbilical vein endothelial cells (HUVECs) were seeded into the upper chamber of a transwell plate (Corning) and incubated in EGM2 for 3 days under the conditions of 37° C. and 5% CO2. […] Then, 50 μl of dextran-FITC (Sigma) was added to the upper chamber. After 30 minutes, based on the principle according to which the fluorescent substance would be observed when penetration into the vascular endothelial cells was increased, the medium was sampled from the lower chamber and the fluorescence thereof was measured."}, "HUVEC cells [3]": {"test_system": "HUVEC cells", "assay": "Transwell invasion assay of vascular endothelial cells", "format": "cell-based, human", "details": "VEGF165A 20 ng/ml, 1 μM, 12 hours", "procedure": "Additionally, in order to examine the inhibitory activity of Fc-TPP11 against VEGF165A-induced invasion of vascular endothelial cells, a transwell assay was performed. A transwell (Corning Costar, USA) having a polycarbonate membrane with a […] pore size was used. Matrigel (Corning Costar, USA) was coated on the lower layer surface of the filter at a ratio of 1:10 and polymerized for 2 hours under the conditions of 37° C. and 5% CO2, and then 5×10^4 HUVEC cells and each of Fc and Fc-TPP11 (1 μM) were seeded in EBM2 medium in the upper layer well. In addition, EBM2 medium containing VEGF165A (20 ng/ml) was added to the lower layer well. Next, the cells were incubated for 12 hours under the conditions of 37° C. and 5% CO2, and then unmoved cells in the upper layer well were removed with cotton, and the cells were fixed with 4% para-formaldehyde. Then, the cells were stained with crystal violet."}, "HUVEC cells [4]": {"test_system": "HUVEC cells", "assay": "Tube formation assay in HUVEC", "format": "cell-based, human", "details": "VEGF165A 20 ng/ml, Fc-TPP11 1 μM, 8 hours", "procedure": "VEGF165A is known to […] angiogenesis using NRP1 as a co-receptor. Based on this, as a method capable of observing angiogenesis in vitro, a tube formation assay was performed. In an experimental method, 50 μl of ECMatrix was added to a 96-well plate and polymerized at 37° C. for 2 hours. After 2 hours, HUVEC cells were suspended in EBM2 medium, mixed with VEGF165A (20 ng/ml), Fc or Fc-TPP11 (1 μM), plated on the ECMatrix at a density of 1×10^4 cells per well, and incubated for 8 hours. The incubated cells were imaged with a microscope."}},
  "data": [
    {"molecule": "COc1cccc2c1C(=O)c1c(O)c3c(c(O)c1C2=O)C[C@@](O)(C(=O)CO)C[C@@H]3O[C@H]1C[C@H](N)[C@H](O)[C@H](C)O1", "note": "[doxorubicin]", "values": [
      {"measurement": "tumor tissue penetration of doxorubicin", "setting": "FaDu cells", "result": "little or no red fluorescence was observed"}
    ]},
    {"molecule": "B1", "values": [
      {"measurement": "migration activity of vascular endothelial cells", "setting": "HUVEC cells [1]", "result": "increased the migration activity of vascular endothelial cells"},
      {"measurement": "change in VE-cadherin", "setting": "VE-cadherin", "result": "a decrease in VE-cadherin was observed"},
      {"measurement": "ability to penetrate vascular endothelial cells", "setting": "[2]", "result": "had an increased ability to penetrate vascular endothelial cells"},
      {"measurement": "invasion activity of vascular endothelial cells", "setting": "HUVEC cells [3]", "result": "increased the invasion activity of vascular endothelial cells"},
      {"measurement": "tube formation", "setting": "HUVEC cells [4]", "result": "tube formation increased"}
    ]}
  ]
}
